Measured values: PMC5522101

Biological target: VPAC1-C37/A-EYFP (Cys37/Ala mutant of VPAC1 fused with enhanced yellow fluorescent protein) (mouse (stated for the cDNA; the primers of Table 1 and residues 31-457 fit human VPAC1)) (UniProt P97751)
Assay: radioligand binding; competition binding on the cell membrane fraction of CHO cells (50 ug protein/ml): 1 nM [125I]-VIP with or without unlabelled VIP, 60 min at 30°C at equilibrium; nonspecific binding with 2 uM unlabelled peptide; data calibrated by the EYFP fluorescence of the membrane fraction

- Kd: 0.42 nM
Binder: HSDAVFTDNYTRLRKQMAVKKYLNSILN [vasoactive intestinal peptide]
